This is an account of results in patent US20250064952A1 (ACCELERON PHARMA, published 2025).

A value given as a limit tells only on which side of the number the result lay.

B1: ActRIIB-Fc:ActRIIB(L79E)-Fc heterodimer (Fc fusion)
chain 1: GRGEAETRECIYYNANWELERTNQSGLERCEGEQDKRLHCYASWRNSSGTIELVKKGCWLDDFNCYDRQECVATEENPQVYFCCCEGNFCNERFTHLPEAGGPEVTYEPPPTAPTGGGTHTCPPCPAPELLGGPSVFLFPPKPKDTLMISRTPEVTCVVVDVSHEDPEVKFNWYVDGVEVHNAKTKPREEQYNSTYRVVSVLTVLHQDWLNGKEYKCKVSNKALPAPIEKTISKAKGQPREPQVYTLPPSRKEMTKNQVSLTCLVKGFYPSDIAVEWESNGQPENNYKTTPPVLKSDGSFFLYSKLTVDKSRWQQGNVFSCSVMHEALHNHYTQKSLSLSPGK
chain 2: GRGEAETRECIYYNANWELERTNQSGLERCEGEQDKRLHCYASWRNSSGTIELVKKGCWEDDFNCYDRQECVATEENPQVYFCCCEGNFCNERFTHLPEAGGPEVTYEPPPTAPTGGGTHTCPPCPAPELLGGPSVFLFPPKPKDTLMISRTPEVTCVVVDVSHEDPEVKFNWYVDGVEVHNAKTKPREEQYNSTYRVVSVLTVLHQDWLNGKEYKCKVSNKALPAPIEKTISKAKGQPREPQVYTLPPSREEMTKNQVSLTCLVKGFYPSDIAVEWESNGQPENNYDTTPPVLDSDGSFFLYSDLTVDKSRWQQGNVFSCSVMHEALHNHYTQKSLSLSPG
notes: also called ActRIIB-Fc:ActRIIB(L79E)-Fc heteromer
B2: activin B (ligand, UniProt P09529 293-407, looked up)
chain: GLECDGRTNLCCRQQFFIDFRLIGWNDWIIAPTGYYGNYCEGSCPAYLAGVPGSASSFHTAVVNQYRMRGLNPGTVNSCCIPTKLSTMSMLYFDDEYNIVKRDVPNMIVEECGCA

The target of one assay is T1, activin A (UniProt P08476 311-426).
T1 sequence (looked up): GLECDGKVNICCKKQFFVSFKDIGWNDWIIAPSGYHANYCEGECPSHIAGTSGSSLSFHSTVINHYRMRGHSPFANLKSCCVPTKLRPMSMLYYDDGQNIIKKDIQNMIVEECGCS
Description: SPR (Biacore), 37 C, anti-Fc capture, ligand in flow. The procedure:
(§1) A Biacore™-based binding assay was used to compare the ligand binding kinetics of an ActRIIB-Fc:ActRIIB(L79E)-Fc heterodimer with those of unmodified ActRIIB-Fc homodimer. Fusion proteins were captured onto the system using an anti-Fc antibody. Ligands were then injected and allowed to flow over the captured receptor protein at 37° C. Results are summarized in the table below, in which ligand off-rates (kd) most indicative of effective ligand traps are denoted in bold.
(SPR reads the build-up and loss of mass on a sensor chip optically.)

Another assay has as its target T2, BMP9 (UniProt Q9UK05 320-429).
T2 construct: also called GDF2
T2 sequence (looked up): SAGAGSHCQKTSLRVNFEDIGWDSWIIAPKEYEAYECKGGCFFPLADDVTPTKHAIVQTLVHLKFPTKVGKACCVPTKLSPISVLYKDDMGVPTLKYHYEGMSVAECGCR
Described as above. The procedure:
as §1

A further assay concerns the target T3, BMP10 (UniProt O95393 317-424).
T3 sequence (looked up): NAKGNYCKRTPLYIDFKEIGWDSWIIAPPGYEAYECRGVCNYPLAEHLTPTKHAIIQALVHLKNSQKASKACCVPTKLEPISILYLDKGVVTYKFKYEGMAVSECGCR
The description is as above. Here is the method: as §1

The target of the assay “activin B” is B2. The assay is described as above. The procedure:
as §1

The target of another assay is T4, GDF3 (UniProt Q9NR23 251-364).
T4 construct: also called VGR2
T4 sequence (looked up): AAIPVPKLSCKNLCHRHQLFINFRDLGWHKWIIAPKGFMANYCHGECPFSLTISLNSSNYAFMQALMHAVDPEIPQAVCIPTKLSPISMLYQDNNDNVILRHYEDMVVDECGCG
The description is as above. Here is the method:
as §1

Another assay has as its target T5, GDF8 (UniProt O14793 267-375).
T5 construct: also called myostatin
T5 sequence (looked up): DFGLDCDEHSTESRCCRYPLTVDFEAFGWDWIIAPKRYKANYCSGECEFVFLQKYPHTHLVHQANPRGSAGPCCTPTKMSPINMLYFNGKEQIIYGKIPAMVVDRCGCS
The assay is described as above. Here is the method: as §1

The target in the next assay is T6, GDF11 (UniProt O95390 299-407).
T6 construct: also called BMP11
T6 sequence (looked up): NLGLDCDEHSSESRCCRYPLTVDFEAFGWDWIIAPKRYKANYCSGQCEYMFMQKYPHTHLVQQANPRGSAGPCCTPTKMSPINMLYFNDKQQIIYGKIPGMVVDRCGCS
The description is as above. The procedure:
as §1

Another assay has as its target T7, BMP6 (UniProt P22004 382-513, limits assumed).
T7 sequence (looked up): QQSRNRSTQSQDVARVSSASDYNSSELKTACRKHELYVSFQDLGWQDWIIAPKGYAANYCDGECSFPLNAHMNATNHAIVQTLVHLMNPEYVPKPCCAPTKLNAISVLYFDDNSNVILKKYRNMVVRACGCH
The description is as above. The procedure:
as §1

In a further assay the target is T8, ActRIIA-mFc (human, UniProt P27037 20-135).
T8 construct: extracellular domain; not shown: minimal linker, not specified for the mouse construct
Description: similar Biacore binding assay. Here is the method: GDF11 or activin A were immobilized on a Biacore™ CMS chip using standard amine-coupling procedure. ActRIIA-hFc and ActRIIA-mFc proteins were loaded onto the system, and binding was measured. […] See FIG. 15A-B. Using a similar binding assay, ActRIIA-hFc was determined to have high to moderate affinity for other TGF-beta superfamily ligands including, for example, activin B, GDF8, BMP6, and BMP10. ActRIIA-mFc behaved similarly.

For assay [1], the target named is T9, ActRIIB-Fc homodimer (human, UniProt Q13705 19-137).
T9 construct: extracellular domain; also called unmodified ActRIIB-Fc homodimer; ActRIIB-Fc:ActRIIB-Fc homodimer
T9 sequence (looked up): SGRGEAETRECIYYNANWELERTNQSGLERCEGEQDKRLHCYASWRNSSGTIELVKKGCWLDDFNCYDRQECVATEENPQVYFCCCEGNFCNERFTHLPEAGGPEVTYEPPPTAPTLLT
Put plainly: SPR (Biacore), anti-Fc capture, ligand in flow. The procedure: A Biacore™-based binding assay was used to compare ligand binding selectivity of the ActRIIB-Fc:ALK4-Fc heterodimeric complex described above with that of ActRIIB-Fc and ALK4-Fc homodimer complexes. The ActRIIB-Fc:ALK4-Fc heterodimer, ActRIIB-Fc homodimer, and ALK4-Fc homodimer were independently captured onto the system using an anti-Fc antibody. Ligands were injected and allowed to flow over the captured receptor protein. Results are summarized in the table below, in which ligand off-rates (kd) most indicative of effective ligand traps are denoted by bold font.

In assay [2] the target is T9, ActRIIB-Fc homodimer. Description: SPR (Biacore), anti-Fc capture, ligand in flow. Here is the method: A Biacore™-based binding assay was used to compare ligand binding selectivity of the ActRIIB-Fc:ALK7-Fc heterodimeric complex described above with that of ActRIIB-Fc and ALK7-Fc homodimeric complexes. The ActRIIB-Fc:ALK7-Fc heterodimer, ActRIIB-Fc homodimer, and ALK7-Fc homodimer were independently captured onto the system using an anti-Fc antibody. Ligands were injected and allowed to flow over the captured receptor protein. Results are summarized in the table below, in which ligand off-rates (kd) most indicative of effective ligand traps are denoted by bold font.
This is another data set of the same source.

Assay [3] concerns the target T9, ActRIIB-Fc homodimer. Description: SPR (Biacore), 37 C, anti-Fc capture, ligand in flow. The procedure:
as §1

T8 sequence (P27037 20-135): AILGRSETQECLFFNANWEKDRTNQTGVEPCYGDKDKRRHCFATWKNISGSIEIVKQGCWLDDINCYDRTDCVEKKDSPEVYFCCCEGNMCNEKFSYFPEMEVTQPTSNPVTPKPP

As a reminder, the Kd is the concentration at which binding is half-saturated. Read a low Kd as a tighter complex. By koff is commonly meant a measure of how fast the partners let go of each other. A word on the kon: it is a measure of how fast the partners come together. Consider B1, for which the Kd in the assay with activin A is 0.17 nM; with BMP9, above 2.8 nM; with BMP10, 0.042 nM; with activin B, 0.025 nM; with GDF3, 10 nM; in the assay with GDF8 it was 0.15 nM. For the same molecule, the Kd is 0.009 nM with GDF11 and 0.056 nM with BMP6. For the same molecule, the “fold faster off-rate vs ActRIIB-Fc homodimer” value with activin A and in the assay with BMP10 was around 10 fold each time. Besides, the koff in the assay with activin A was found to be 0.0015 s⁻¹; with BMP10 it was 0.002 s⁻¹; in the assay with activin B, 0.00021 s⁻¹; with GDF3, 0.0059 s⁻¹; in the assay with GDF8 it was 0.0005 s⁻¹; with GDF11 it was 0.00036 s⁻¹. The koff with BMP6 stood at 0.018 s⁻¹. Moreover, the kon with activin A was found to be 8.8e+06 M⁻¹ s⁻¹; with BMP10 it was 4.8e+07 M⁻¹ s⁻¹; with activin B it was 8.3e+06 M⁻¹ s⁻¹; with GDF3 it was 580000 M⁻¹ s⁻¹; with GDF8, 3.4e+06 M⁻¹ s⁻¹; with GDF11, 4e+07 M⁻¹ s⁻¹. Further, in the assay with BMP6, the kon worked out at 3.3e+08 M⁻¹ s⁻¹.
With B2, in the assay with ActRIIA-mFc, the binding result is on record as “binds”. In the assay with ActRIIB-Fc homodimer [1], this molecule returned a Kd of 0.02 nM, a koff of 0.0001 s⁻¹ and a kon of 5.1e+06 M⁻¹ s⁻¹. Besides, in the assay with ActRIIB-Fc homodimer [2], the Kd was 0.008 nM, the koff came to 0.00016 s⁻¹ and the kon came to 1.5e+07 M⁻¹ s⁻¹. In the assay with ActRIIB-Fc homodimer [3], the Kd was 0.008 nM, the koff came to 6.6e-05 s⁻¹ and the kon came to 8.1e+06 M⁻¹ s⁻¹.
